Data set [1] has as its system grapevine powdery mildew E. necator. Kind of data set: Vineyard field trials of topical dsRNA: powdery mildew disease incidence and disease severity (Kearney and Armstrong sites). Conditions: for powdery mildew disease incidence: Chenin Blanc, 3 weeks after end of treatments (June 23), untreated ~80%; for mean disease severity (percent of berries with powdery mildew per bunch): June 28, almost 4 weeks post dsRNA treatment, untreated 12%. Format: in vivo, Erysiphe necator. The protocol: The tests were done at Kearney Agriculture Research and Extension Center, Parlier, CA (Fresno County) and Armstrong Plant Pathology Field Station at University of California, Davis, CA. Susceptible grapevine cultivars were tested—Sauvignon Blanc at Kearney and Chenin Blanc at Davis. In both cases, the Stihl backpack sprayer SR450 was used and sprayer calibration, and normalization was performed to ensure equal doses of treatment applied to each replicate. During the trial period, vines were irrigated by drip irrigation and the regular maintenance of weeding, herbicide and insecticide treatments were done by the Kearney or Davis site field staff. In early season, 2.0 gallons/5 replicates and in mid to late season 2.5 to 3.0 gallons/5 replicates were sprayed. All appropriate personal protective equipment (PPE) was used and required training was completed including pesticide application training and heat exhaustion training. A randomized block design was used with 5 replicates for each treatment. Two adjacent vines were used as one experimental unit and the area between two trunks (yellow box) was sprayed and assessed (FIG. 16).
The trial was conducted at Kearney Agricultural Research and Extension Center, Parlier, CA on blocks of the susceptible white wine variety Sauvignon Blanc. Total of 5 different gene targets from grapevine powdery mildew E. necator, EnCYP51 (SEQ ID NO:182), EnLIP1 (SEQ ID NO:183), EnICL2 (SEQ ID NO:186), EnMS (SEQ ID NO:188) and EnAPG9 (SEQ ID NO:208) were tested at this site by backpack spraying of the experimental units with dsRNA designed specifically against these target genes. The treatments were placed in a randomized block design with 5 replicates of each (dsRNA treatments 1-5), 5 replicates of Gold Standard (GS) and 5 replicates of untreated control (UT Control). Gold Standard refers to the pesticides normally used by growers to control powdery mildew: Sulfur and other chemical fungicides such as Rally, Quintec, and Luna. Between each treatment replicate, consisting of two vines, there was a spacer vine to avoid the spray drift from one treatment another.
FIG. 17 provides an overview of the treatment schedule at Kearney. A total of 4 treatments of dsRNA were performed between May and July, replacing the 4 final treatments of the GS. Data were collected at the times marked by the gray dots in FIG. 17. The monitoring of powdery mildew index data and manual scouting of disease in the field was used to adjust timing schedule per standard protocol (www2.ipm.ucanr.edu/weather/grape-powdery-mildew-risk-assessment-index/?src=redirect2refresh).
The total number of bunches per replicate (mean of 130) and the bunches with powdery mildew growth were counted and percent of infected bunches per replicate was calculated.
Disease severity was calculated by counting the number of infected berries compared to total berries in a bunch. 25 bunches from both sides of the canopy were assessed per replicate.
This trial was conducted at University of California Davis Plant Pathology Armstrong Facility on white wine variety Chenin Blanc. A total of 4 different gene targets from grapevine powdery mildew E. necator, EnLIP1 (Seq ID No:183), EnICL2 (Seq ID 186), EnMS (Seq ID No:188) and EnAPG9 (Seq ID No:208) were tested at this site by treating the vines with dsRNA designed against these target genes. A randomized block design with 5 replicates of each (treatments 1-5) and 5 replicates of untreated control (UT Control) was utilized. Spray protocols and spray volumes were the same as done by Akif Eskalen's team as shown on this link (Elfar et al. 2021, ucanr.edu/sites/eskalenlab/files/355630.pdf) and in Table 10. Eskalen's lab performed 3rd party commercial fungicide trials for the industry.
In this field trial, a total of 3 sprays of dsRNA were performed between May and early June (FIG. 21). For the dsRNA treatments, no parallel chemical treatments were performed prior to the dsRNA treatments. […]

Another data set deals with G. orontii MGH1. Description: Spray-induced gene silencing (SIGS), G. orontii spore production on A. thaliana (whole plant and detached leaf assays). Format: in vivo, Golovinomyces orontii. The following applies: topical dsRNA against G. orontii target (Gor Seq ID); detached leaf assay; n>=3.

B1: EnLIP1: dsRNA against E. necator TAG lipase 1 (target SEQ ID NO:183) (nucleic acid)
chain: ATTAATACTGGTGCTGTACAGCGCCTATTACACATTAATGAGGACTGTTTAACTGTCACTGTTCAAAAACCATCATATGCGACTCCCGACTCTAAGTTTCCTGTCGTGTTCTCTCTATTTTTTGGAGGGTTTGGTTTTGGTTCAACGGCAATATATGATGCCTCTAAACTTATTCAAGCAGGTATCAATGCAGGTAAACCTATCGTCTACGTTGCTGTAAATTATCGTTTGGGTGCATTTGGATGGCTTGGAGGAAGAGAAATTAAAGAGGCAGGTCTCGCTAATCTTGGCCATTACG
modifications: misc_feature 1..298: note = Inhibitory double stranded RNA; listed as RNA
As to B1, in data set [1] (Armstrong site), the “powdery mildew disease incidence” value was around 20% and the “mean disease severity (percent of berries with powdery mildew per bunch)” value was determined as 1%.

B2: EnAPG9: dsRNA against E. necator Autophagy protein Apg9 (target SEQ ID NO:208) (nucleic acid, listed as Golovinomyces orontii)
chain: ATGCCGTCTATCCCCATCACTATCATTACTGGCTTTCTAGGGTCTGGTAAAACAACTCTCCTTCTCAATATTCTTCCTCAAATACTTGCCAAGAATCCGAAATATAAATTAGCGCTTCTCAAAAATGAATTTGGAGATTTGGCTGTCGATAGTCAACTTGCAGGCTCTTCTATCACTGGTGTTCGTGAGATTCTAAATGGCTGCATTTGCTGTAACCTCGTCGGCTCTCTCTCATCGGCCCTTGAGGAGCTCACAGAGAGTATTTCTCCCGACCGAATAGTGATTGAAACGTCTGGGTCAGCATTCCCTGCAACGCTAGCTATGGAGGTTAATCGACTAGCGCGGGAGACCCAGGGTAAATATGTTCTAGATGGTGTAGTGACTGTTATTGATGTCGAAAACTGGAAGGGATATGAAGATACTAGCTTTACCGCACGATTACAAGCTCGTTACACAGATCTTGTTGTTTTTAATAAGTGGGAGGATGTTGGTGAAAGGAGGTGGGACGAATGTTTAGATCGACTGGGTGATATGGAGGTTGAAATTCCATGGGTTAAGAGTCAGAGGGGATTTGTTGATATGGATATTATCTTTGGCCTTGATGGAGGACTAGCAAAAGAATTAGAGGGAGAAGTAGAGCAAGGCCTACATCAGCAAAAAAAAACGCACAAGGACGGCGAAAGTCACCAGAACGAGGTTGAGGTACTTTCTGTCACCCTTTCTAAAAAATCTGATATCTCCTCGACCATTACACGTCCGAATTCAGAGCTTACCCCAAAAATTGATACTGATGCTCTGCTGAAACTTCTCCAAACAGCACCCAAGGACGAGGTCTACCGGATAAAGTCAATCTTTACTTCTTCTACACCTATGCCTTCATCTACTCCTATATCATCTTCAGATCTATCAGAAACGCCAGTGTCTTCAGTTGCTGGCCCAAATAAATACATTCTAAATTGGTCATTTGGTCGCTGGACCTGCACACCTATGCCCTCCACTAATTCTTCAACCACAGGAGACAGCTTTGAGCACCCATCTAGCGAGGCCGTAGGTCAAGGAGAAGTTTTCCTTCGCATGATTATAATTCTCTCAAGAGGTGCTGGTAAGAAATGGAAAAAAAGACTTGAGGATGGAGGTTTTATACGTTTCAAGGGTGTGGCCGGAACCGACGTACAGAATTTAAATGTTGTTCCCATCAGTTAA
modifications: listed as DNA
With B2, in data set [1] (Armstrong site), the “powdery mildew disease incidence” value is recorded as around 20% and the “mean disease severity (percent of berries with powdery mildew per bunch)” value came out at 1%. Further, the “fold by which average disease incidence of untreated control increases faster than that of the dsRNA treatment (slopes)” value in data set [1] (Armstrong site, FIG. 22 panel B) was 2.74 fold. This molecule returned a mean disease incidence in data set [1] (Armstrong site, July 16, more than six weeks after dsRNA treatments) of 24%. In addition, in data set [1] (topical spraying, vineyard field trials 2021, trial sites in California), the “powdery mildew infection / disease in vineyard” value is given as “effective”.

B3: EnMS: dsRNA against E. necator Malate synthase (target SEQ ID NO:188) (nucleic acid)
chain: TACAAGCTCAGATCAGACCGAAAACTTCCAACGCTTATTATAAGACCTCGTGGCTGGCACTTAGATGAGAAACATGTAACTATTGAAGGAGAGCCAATATCCGGCTCTCTATTCGATTTTGGACTATACTTTTTTCACAATGCCAAAGAACTGATAAAACGAGACTTAGGGCCCTACTTTTATCTTCCAAAGATGGAATCTTATCTAGAAGCCCGTCTTTGGAATGATGTCTTCAACCTAGCACAGGACTATATTGGTATTTCTCGTGGAACTATACGCGCTACAGTTCTAATTGAAACCATACTTGCTGCATTTGAAATG
modifications: misc_feature 1..321: note = Inhibitory double stranded RNA; listed as RNA
B3: in data set [1] (Armstrong site), the “powdery mildew disease incidence” value was around 20% and the “mean disease severity (percent of berries with powdery mildew per bunch)” value is listed as 2%.

B4: 181 (nucleic acid, listed as Golovinomyces orontii)
chain: ATGTCTAATCAGCTAAAACATCCCTCTTTACTCATTCCAGGCCCCGTTGAGATTGACGATGCTGTCCTTCACTCTATGAGCCATCACAGATCCTCATCTTACTGCAGTGAGAGCCATGTGGACATATCGTTTATAAAAACTTTTGGAAAAACGTTGTACATGCTCAGGAAGCTATTCCAATCTAATGATCCTTACTCTCAACCATTCGTAATTTCCGGATCTGGTACCCTAGGATGGGATCTAGTAGCCGCAAATTTAGCGGAACGCGGTGATGATGTCTTAGTATTACACACGGGTTACTTTGCAGACTCTTTCTCCGATTGCTTTGAGACCTACGGGATAAACGTCACACAGCTTATAGCTCCGATTGGTTCAAGACCCCAACTAATAGAGATTGAAGAAGAATTATCAAAAAAGACCTACAAACTTCTAACAGTGACCCATGTCGATACCTCGACTGGCGTATTAAATGAACTGGAGCCAATTTCAGAAATAGTTCATCGGGTTTCTCCTGAGACCCTTGTAATTGTTGATGGAGTGTGCAGTGTCGGGTCTGAGGAGATCGCTTTCGACTCCTGGAAACTCGATGGAGTTATCACTGCAAGCCAGAAAGCAATTGGTGCACCGGCTGGTCTTTCCATCTCAATTTTCAGTGGCCGTGCGATTCAGTCATTTAATGACCGACAGACTCCTCCTGGGTCTTACTATGCATCATTCAAGAATTGGATGCCTATCATGCAGAGCTATGAAGCCCAAGAGCCTTCATATTTTGCAACTCCATCCATTCATTTGATCCATGCACTTCACACCTCTTTAACGCAAATTCTCTCACGCCCTCTTTCAGAGCGGTTCACTATTCACAGAGAAATATCTCAAAGAGTAAAAGAAGCAGTTTCTGGAATGGGATTAACTCAGTTGGCTGCCAATCCTGAAAATCAAGCAAACGGAATGACAGCAATATATTTGCCAGATAATATTAAAGCGAAAGACCTTTTAACCAAGATACTTCAAAAAGGAGTTGTTCTTGCTGGTGGATTACATAAAGAAATTGCTCATAAGTATATTCGCTTTGGTCATATGGGGGTGAGCGTGACCAAGCCTGAAAGGGGTGATATTGAACGAGCTATCAAAGCTTTGGAGACAAGTCTTTCAGAGTTAGGATATCGTAGAGAGAAACAGTCTTAG
modifications: listed as DNA
For B4, in the data set on G. orontii MGH1, the “G. orontii Spore Production on Arabidopsis, Detached Leaf Assay, % reduction” value was 62%.

The values are drawn from patent US20260117244A1, “INHIBITORY RNA FOR THE CONTROL OF PHYTOPATHOGENS” (priority 2021, published 2026).
